Source: article PMC11630628 (Molecular Plant, 2024)
Ends that are not written are not given here. * marks the point of attachment. 5FAM = O=C1OC2(c3ccc(O)cc3Oc3cc(O)ccc32)c2ccc(C(=O)*)cc21

What was measured:
[1] = tested on: FERONIA (FER) / EFR/FLS2-BAK1 complex; set-up: method as in Stegmann et al., 2017; conditions: ref Stegmann et al., 2017; cited from earlier work
[2] = tested on: ANJEA-FERONIA (ANJ–FER) receptor complex; set-up: method as in Liu et al., 2021; conditions: ref Liu et al., 2021; cited from earlier work
[3] = tested on: leaf senescence in Arabidopsis; conditions: ref Gully et al., 2015; cited from earlier work
Text: Senescence, a crucial biological event in plant development, involves the coordinated breakdown of cellular components to recycle nutrients, aiding adaptation to changing environments. It optimizes nutrient storage and reuse, particularly in leaves, the primary photosynthetic organs. Initiation of leaf senescence prompts various physiological changes, including chlorophyll (Chl) reduction and macromolecule degradation, enabling nutrient recycling that supports the growth of seeds and fruits ([Yang et al., 2014]; [Kim et al., 2018]; [Woo et al., 2019]; [Guo et al., 2021]). Efficient senescence ...

[4] = molecular target: T1, MIK2 ectodomain (MIK2^LRR, residues 45-707) fused with a 6x His-MBP tag (Arabidopsis thaliana), Q8VZG8; test: MST; Figure 5F, competition: 0.5 μM FAM-SCOOP10 and 15 μM MIK2^LRR mixed 10 min at room temperature in the dark, then a range of concentrations of SCOOP12, 10 min; 20% LED power, 20% MST power; the reverse set-up (SCOOP10 on MIK2-SCOOP12) is not described
T1 chain: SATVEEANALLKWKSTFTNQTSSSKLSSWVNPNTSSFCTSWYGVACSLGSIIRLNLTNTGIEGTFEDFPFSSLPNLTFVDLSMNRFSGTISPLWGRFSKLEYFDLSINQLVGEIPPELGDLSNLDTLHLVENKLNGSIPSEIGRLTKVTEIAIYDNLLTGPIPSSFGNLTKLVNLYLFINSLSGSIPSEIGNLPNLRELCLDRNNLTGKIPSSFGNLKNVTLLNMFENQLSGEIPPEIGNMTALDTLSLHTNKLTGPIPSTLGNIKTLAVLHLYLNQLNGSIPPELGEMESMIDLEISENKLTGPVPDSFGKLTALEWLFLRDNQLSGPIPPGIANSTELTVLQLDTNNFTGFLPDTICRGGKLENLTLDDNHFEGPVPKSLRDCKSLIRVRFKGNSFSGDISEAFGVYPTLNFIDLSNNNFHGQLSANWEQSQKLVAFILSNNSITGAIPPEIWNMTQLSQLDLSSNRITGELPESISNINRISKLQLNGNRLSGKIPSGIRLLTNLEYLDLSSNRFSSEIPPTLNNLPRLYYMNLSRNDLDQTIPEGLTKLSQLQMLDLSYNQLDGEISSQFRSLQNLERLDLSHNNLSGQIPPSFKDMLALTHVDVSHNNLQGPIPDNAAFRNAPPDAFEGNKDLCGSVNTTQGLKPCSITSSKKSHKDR

[5] = molecular target: T2, MIK2 ectodomain (MIK2^LRR, residues 45-707) fused with a 6x His-MBP tag (Arabidopsis thaliana, UniProt Q8VZG8 45-707); test: MST; in presence of competitor SCOOP10
T2 chain: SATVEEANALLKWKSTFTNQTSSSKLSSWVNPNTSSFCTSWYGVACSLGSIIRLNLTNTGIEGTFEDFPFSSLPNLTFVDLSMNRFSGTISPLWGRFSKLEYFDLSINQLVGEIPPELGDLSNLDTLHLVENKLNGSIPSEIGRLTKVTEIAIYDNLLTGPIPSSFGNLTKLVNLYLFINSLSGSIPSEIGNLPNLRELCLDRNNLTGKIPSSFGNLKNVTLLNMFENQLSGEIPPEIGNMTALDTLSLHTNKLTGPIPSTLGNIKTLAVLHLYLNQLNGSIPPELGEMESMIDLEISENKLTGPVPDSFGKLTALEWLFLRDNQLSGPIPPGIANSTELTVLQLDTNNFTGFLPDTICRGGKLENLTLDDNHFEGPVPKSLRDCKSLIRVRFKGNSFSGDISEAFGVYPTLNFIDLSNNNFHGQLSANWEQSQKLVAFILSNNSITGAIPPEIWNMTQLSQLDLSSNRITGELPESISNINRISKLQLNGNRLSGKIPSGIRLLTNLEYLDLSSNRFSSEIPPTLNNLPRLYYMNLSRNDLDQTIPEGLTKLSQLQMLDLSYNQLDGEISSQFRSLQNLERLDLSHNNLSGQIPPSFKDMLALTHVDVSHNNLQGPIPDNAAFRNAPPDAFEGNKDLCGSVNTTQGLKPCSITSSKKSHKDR

[6] = molecular target: T3, MIK2 ectodomain (MIK2^LRR, residues 45-707) fused with a 6x His-MBP tag (Arabidopsis thaliana, UniProt Q8VZG8 45-707); test: MST; Monolith NT.115; 0.05 μM 5-FAM-labelled peptide, MIK2^LRR diluted from 20 μM in ddH2O, 10 min at room temperature; 20% LED power, 40% MST power; conditions: both partners purified
T3 construct: ectodomain residues 45-707, without the putative N-terminal signal peptide; Cloned into pET41 with a 6x His-MBP tag; no cleavage of the tag is told; also called His-MBP-tagged MIK2^LRR; ectodomain of MIK2; source: E. coli BL21, purified (Mag-Beads His-Tag Protein Purification Kit)
T3 sequence (looked up): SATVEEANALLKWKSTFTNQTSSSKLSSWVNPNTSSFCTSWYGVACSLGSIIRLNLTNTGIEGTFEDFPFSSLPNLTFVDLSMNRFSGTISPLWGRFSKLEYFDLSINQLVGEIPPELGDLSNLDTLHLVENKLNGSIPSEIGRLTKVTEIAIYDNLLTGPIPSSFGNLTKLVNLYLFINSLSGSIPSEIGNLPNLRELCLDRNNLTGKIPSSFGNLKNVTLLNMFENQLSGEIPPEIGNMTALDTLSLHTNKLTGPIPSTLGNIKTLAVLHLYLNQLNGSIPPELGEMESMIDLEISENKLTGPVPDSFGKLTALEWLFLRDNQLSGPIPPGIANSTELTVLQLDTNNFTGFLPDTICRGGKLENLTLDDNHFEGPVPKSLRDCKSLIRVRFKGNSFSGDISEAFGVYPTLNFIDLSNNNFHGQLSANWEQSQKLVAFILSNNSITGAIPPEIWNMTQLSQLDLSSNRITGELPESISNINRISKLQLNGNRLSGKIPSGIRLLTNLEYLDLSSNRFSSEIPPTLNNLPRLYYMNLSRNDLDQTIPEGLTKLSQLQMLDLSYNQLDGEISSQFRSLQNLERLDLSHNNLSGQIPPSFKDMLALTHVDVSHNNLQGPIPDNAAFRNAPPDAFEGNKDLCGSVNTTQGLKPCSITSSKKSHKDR

[7] = molecular target: T2, MIK2 ectodomain (MIK2^LRR, residues …); test: MST; in presence of competitor SCOOP12
[8] = molecular target: T3, MIK2 ectodomain (MIK2^LRR, residues …); test: MST; Figure 5F, titrations in the absence of the competing peptide; conditions of these titrations not told apart from the others; conditions: both partners purified

In the case of “RALF23: RAPID ALKALINIZATION FACTOR (RALF) peptide (ATRRYISYGALRRNTIPCSRRGASYYNCRRGAQANPYSRGCSAITRCRRS; Protein RALF-like 23; UniProt Q9LUS7 89-138, looked up)”, the “effect on FER-mediated receptor complex assembly” value [1] is given as “suppresses the formation of the EFR/FLS2-BAK1 complex” and the “competition with POLLEN COAT PROTEIN B-class peptides” value [2] is given as “compete with the POLLEN COAT PROTEIN B-class peptides”.

In the case of “plant elicitor peptide PEP1 (ATKVKAKQRGKEKVSSGRPGQHN; Elicitor peptide 1; UniProt Q9LV87 70-92, looked up) [plant elicitor peptide, one of the first plant phytocytokines]”, the leaf senescence modulation [3] is listed as “function as a leaf senescence modulator in Arabidopsis”.

PVRSSQSSQAGGR (modifications not checked) [SCOOP12 peptide (unlabeled, used as competitor), B3H7I1 44-78] showed a KD printed for the inhibition of the SCOOP10-MIK2 interaction by SCOOP12 [4] of 279000 nM.

In the case of 5FAM-PVRSSQSSQAGGR [SCOOP12 peptide labeled with 5-FAM at the N terminus (FAM-SCOOP12)], the Kd [5] is reported as 1160 nM and the Kd [6] is reported as 22 ± 3.02 nM.

With 5FAM-PNGDIFTGPSGSGHGGGR [SCOOP10 peptide labeled with FAM at the N-terminus (5'-FAM-SCOOP10)] the Kd [7] was 279000 nM, the Kd [8] was 753 nM and the Kd [6] was 13.5 ± 1.47 nM.
